Results published in patent US20190376079A1 (WHITEHEAD INSTITUTE FOR BIOMEDICAL RESEARCH, published 2019).

Target: SBP-tagged EF2 purified from WDR85 deficient (WDR85GT) cells (human, UniProt P13639 1-858)
Test: co-purification with SBP-tagged EF2 on streptavidin sepharose from WDR85GT cells; silver stain, mass spectrometry, immunoblot
Source text: Proteins were separated using SDS-PAGE gel electrophoreses and visualized using silverstaining. For mass spectrometry, the EF2 band was purified from gel and digested using trypsin.

B1: DPH5 (enzyme)
chain: MLYLIGLGLGDAKDITVKGLEVVRRCSRVYLEAYTSVLTVGKEALEEFYGRKLVVADREEVEQEADNILKDADISDVAFLVVGDPFGATTHSDLVLRATKLGIPYRVIHNASIMNAVGCCGLQLYKFGETVSIVFWTDTWRPESFFDKVKKNRQNGMHTLCLLDIKVKEQSLENLIKGRKIYEPPRYMSVNQAAQQLLEIVQNQRIRGEEPAVTEETLCVGLARVGADDQKIAAGTLRQMCTVDLGEPLHSLIITGGSIHPMEMEMLSLFSIPENSSESQSINGL
notes: also called methyltransferase DPH5
binding result: binds
